# Laboratory results published in IntAct's records for PubMed 25893917.
# B1: Twist-related protein 1 (Mus musculus), P26687 (parent)
# chain: MMQDVSSSPVSPADDSLSNSEEEPDRQQPASGKRGARKRRSSRRSAGGSAGPGGATGGGIGGGDEPGSPAQGKRGKKSAGGGGGGGAGGGGGGGGGSSSGGGSPQSYEELQTQRVMANVRERQRTQSLNEAFAALRKIIPTLPSDKLSKIQTLKLAARYIDFLYQVLQSDELDSKMASCSYVAHERLSYAFSVWRMEGAWSMSASH
# partner: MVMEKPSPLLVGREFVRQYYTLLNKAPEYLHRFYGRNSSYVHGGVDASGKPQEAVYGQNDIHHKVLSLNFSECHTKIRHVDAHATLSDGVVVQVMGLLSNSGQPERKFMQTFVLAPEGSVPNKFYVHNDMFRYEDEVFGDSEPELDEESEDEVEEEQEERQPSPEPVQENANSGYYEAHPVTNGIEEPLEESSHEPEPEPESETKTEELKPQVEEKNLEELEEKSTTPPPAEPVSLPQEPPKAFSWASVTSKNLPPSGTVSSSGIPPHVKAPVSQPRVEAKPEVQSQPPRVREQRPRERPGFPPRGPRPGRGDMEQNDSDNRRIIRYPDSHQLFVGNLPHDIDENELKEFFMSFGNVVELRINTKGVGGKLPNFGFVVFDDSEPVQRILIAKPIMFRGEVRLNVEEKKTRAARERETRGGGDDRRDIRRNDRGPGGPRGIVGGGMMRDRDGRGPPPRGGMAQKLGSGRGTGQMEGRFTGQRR
# Variants of: B1
# Details: with G3BP2, Q9UN86
row,Variant,effect of a mutation on the interaction
1,MMQDVSSSPVSPADDSLSNSEEEPDRQQPASGKRGARKRRSSRRSAGGSAGPGGATGGGIGGGDEPGSPAQGKRGKKSAGGGGGGGAGGGGGGGGGSSSGGGSPQSEEELQTQRVMANVRERQRTQSLNEAFAALRKIIPTLPSDKLSKIQTLKLAARYIDFLYQVLQSDELDSKMASCSYVAHERLSYAFSVWRMEGAWSMSASH [Y107E],decreasing interaction strength
